According to patent publication US20140322726A1:

How the values were obtained:
[1] = biological target: endogenous human asparagine synthetase (ASNS) in leukemia cells (human) (UniProt P08243); assay: flow cytometry with QIFIKIT calibration beads, K562 cells, control antibody at 3 ug/ml
[2] = biological target: endogenous human asparagine synthetase (ASNS) in leukemia cells (human) (UniProt P08243); assay: flow cytometry on fixed, permeabilised MOLT-4 cells (extremely low ASNS), control antibody at 3 ug/ml
[3] = biological target: endogenous human asparagine synthetase (ASNS) in leukemia cells (human) (UniProt P08243); assay: flow cytometry with QIFIKIT calibration beads, MOLT-4 cells, control antibody at 3 ug/ml
[4] = biological target: endogenous human asparagine synthetase (ASNS) in leukemia cells (human) (UniProt P08243); assay: flow cytometry on fixed, permeabilised K562 cells (high ASNS), control antibody at 3 ug/ml

UniProt P08243, sequence (P08243 2-561): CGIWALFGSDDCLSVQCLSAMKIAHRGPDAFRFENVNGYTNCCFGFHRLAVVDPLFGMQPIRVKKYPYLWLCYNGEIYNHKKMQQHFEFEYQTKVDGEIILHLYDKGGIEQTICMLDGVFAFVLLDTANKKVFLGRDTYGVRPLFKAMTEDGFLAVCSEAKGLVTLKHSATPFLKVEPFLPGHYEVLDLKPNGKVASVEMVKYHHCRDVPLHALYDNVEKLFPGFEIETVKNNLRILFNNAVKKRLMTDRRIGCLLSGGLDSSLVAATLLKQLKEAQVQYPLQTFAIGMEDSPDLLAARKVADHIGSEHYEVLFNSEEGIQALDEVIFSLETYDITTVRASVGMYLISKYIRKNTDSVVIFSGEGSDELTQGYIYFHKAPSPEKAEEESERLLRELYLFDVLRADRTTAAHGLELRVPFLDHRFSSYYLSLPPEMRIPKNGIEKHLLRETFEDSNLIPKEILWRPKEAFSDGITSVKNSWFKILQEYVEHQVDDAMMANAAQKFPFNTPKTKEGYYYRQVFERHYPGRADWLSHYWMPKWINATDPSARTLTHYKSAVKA

ABC (antibody binding capacity) [1]: 874 units/cell | MFI (arbitrary units) [2]: 3.17 | ABC (antibody binding capacity) [3]: 631 units/cell | MFI (arbitrary units) [4]: 4.56
Substance: control mouse IgG (3423, 2AHB12; Institute of Immunology) (antibody)
